In publication PMC4082471 (ChemMedChem, 2014):

What was measured:
[1] = Solubility in aqueous buffer by 1H NMR; type: physicochemical; details: for solubility compared to that of PTX alone: qualitative
[2] = literature value, ref not given; cited from earlier work
[3] = heparinized rat plasma, 400 μM compound, 37 °C, 1D 1H NMR 600 MHz
[4] = Stability in aqueous buffer and organic solvents by NMR; type: physicochemical

## CC(=O)O[C@H]1C(=O)[C@@]2(C)[C@H]([C@H](OC(=O)c3ccccc3)[C@]3(O)C[C@H](OC(=O)[C@H](O)[C@@H](NC(=O)c4ccccc4)c4ccccc4)C(C)=C1C3(C)C)[C@]1(OC(C)=O)CO[C@@H]1C[C@@H]2O [PTX, paclitaxel]
[1]; assessed from 1H NMR spectra in aqueous buffer
  solubility in aqueous buffer: below 10 μM
[2]
  aqueous solubility: < 0.01 mg/mL
  log P: 3.96

## DYPSMAMYSPSV [DYP-L2-PTX]
[1]
  solubility compared to that of PTX alone: increased solubility

## YSAYPDSVPMMS [YSA-L2-PTX]
[1]
  solubility compared to that of PTX alone: increased solubility

## ySAYPDSVP(L-Norleucine)(L-Homoserine)S [dYNH-L2-PTX]
[1]
  solubility compared to that of PTX alone: increased solubility
[3]
  degradation after 8 hours incubation with plasma: d-Tyr1 does not appear to be degraded

## YSAYPDSVPMMS [YSA-L1-PTX]
[4]; DMSO or methanol
  stability in organic solvents: very stable
[4]; aqueous buffer
  time within which degradation of the linker in buffer is observed: ≤ 10 min
